“And” between values parts separate entries of the source, which are not always exact repeats. Identical values can stand only once. Each block holds one molecule with its values, some of them ahead of it.
T1: hANGPTL4-myc (human, UniProt Q9BY76)
T1 construct: residues 26-406; It is a different tag version from m7; also called ANGPTL4(26-406)-6HIS-myc
T1 sequence (single chain, looked up): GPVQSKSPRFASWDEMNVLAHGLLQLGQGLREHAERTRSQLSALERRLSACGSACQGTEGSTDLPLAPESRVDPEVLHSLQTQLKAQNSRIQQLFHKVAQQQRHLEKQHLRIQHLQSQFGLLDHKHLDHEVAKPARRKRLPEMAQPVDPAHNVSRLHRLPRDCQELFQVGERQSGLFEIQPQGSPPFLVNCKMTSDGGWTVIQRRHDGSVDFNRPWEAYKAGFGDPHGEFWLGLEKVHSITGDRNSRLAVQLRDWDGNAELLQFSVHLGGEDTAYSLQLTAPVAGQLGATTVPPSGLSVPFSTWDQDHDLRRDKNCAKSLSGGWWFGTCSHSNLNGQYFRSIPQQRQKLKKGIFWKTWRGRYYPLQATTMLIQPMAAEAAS

T2: Co-expressed human LPL/soluble GPIHBP1 complex (human, UniProt P06858 28-475; Q8IV16 21-151, biotin at the C-terminal end of GPIHBP1 in the ELISA and SPR assays)
T2 construct: Non-covalent 1:1 complex; also called LPL/GPIHBP1 complex; LPL-GPIHBP1 complex
T2 sequence 1: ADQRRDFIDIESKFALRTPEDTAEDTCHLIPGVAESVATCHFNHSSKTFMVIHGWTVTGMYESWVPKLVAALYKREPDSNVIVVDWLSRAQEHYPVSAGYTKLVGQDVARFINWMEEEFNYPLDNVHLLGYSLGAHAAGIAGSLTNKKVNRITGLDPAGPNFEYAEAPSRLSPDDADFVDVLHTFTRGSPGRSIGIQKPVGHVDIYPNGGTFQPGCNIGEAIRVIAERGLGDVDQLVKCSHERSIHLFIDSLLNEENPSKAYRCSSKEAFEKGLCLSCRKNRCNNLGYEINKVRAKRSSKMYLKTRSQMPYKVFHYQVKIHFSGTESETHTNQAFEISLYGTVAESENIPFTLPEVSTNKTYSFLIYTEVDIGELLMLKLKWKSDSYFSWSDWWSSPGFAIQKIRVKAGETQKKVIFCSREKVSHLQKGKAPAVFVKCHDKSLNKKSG
T2 sequence 2: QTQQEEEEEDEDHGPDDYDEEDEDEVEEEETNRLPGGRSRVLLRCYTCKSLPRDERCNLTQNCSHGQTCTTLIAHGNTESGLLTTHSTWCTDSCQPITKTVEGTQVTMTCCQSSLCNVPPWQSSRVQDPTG

T3: Recombinant human LPL (mature human lipoprotein lipase, amino acids 28-475) (human, UniProt P06858 28-475)
T3 sequence: T2 sequence 1

B1: LPL(28-475)-(G4S)4-hGPIHBP1(21-151)-FLAG-HIS6-Avi (enzyme)
chain: ADQRRDFIDIESKFALRTPEDTAEDTCHLIPGVAESVATCHFNHSSKTFMVIHGWTVTGMYESWVPKLVAALYKREPDSNVIVVDWLSRAQEHYPVSAGYTKLVGQDVARFINWMEEEFNYPLDNVHLLGYSLGAHAAGIAGSLTNKKVNRITGLDPAGPNFEYAEAPSRLSPDDADFVDVLHTFTRGSPGRSIGIQKPVGHVDIYPNGGTFQPGCNIGEAIRVIAERGLGDVDQLVKCSHERSIHLFIDSLLNEENPSKAYRCSSKEAFEKGLCLSCRKNRCNNLGYEINKVRAKRSSKMYLKTRSQMPYKVFHYQVKIHFSGTESETHTNQAFEISLYGTVAESENIPFTLPEVSTNKTYSFLIYTEVDIGELLMLKLKWKSDSYFSWSDWWSSPGFAIQKIRVKAGETQKKVIFCSREKVSHLQKGKAPAVFVKCHDKSLNKKSGGGGGSGGGGSGGGGSGGGGSQTQQEEEEEDEDHGPDDYDEEDEDEVEEEETNRLPGGRSRVLLRCYTCKSLPRDERCNLTQNCSHGQTCTTLIAHGNTESGLLTTHSTWCTDSCQPITKTVEGTQVTMTCCQSSLCNVPPWQSSRVQDPTGDYKDDDDKHHHHHHGGGLNDIFEAQKIEWHE
modifications: biotin on the C-terminal AviTag in the ELISA and SPR assays
notes: also called LPL-GPIHBP1 fusion polypeptide; LPL-GPIHBP1 fusion
B2: Human soluble GPIHBP1(21-151)-FLAG-HIS6-Avi (receptor)
chain: QTQQEEEEEDEDHGPDDYDEEDEDEVEEEETNRLPGGRSRVLLRCYTCKSLPRDERCNLTQNCSHGQTCTTLIAHGNTESGLLTTHSTWCTDSCQPITKTVEGTQVTMTCCQSSLCNVPPWQSSRVQDPTGDYKDDDDKHHHHHHGGGLNDIFEAQKIEWHE
modifications: biotin on the C-terminal AviTag (BirA, site-specific) where used for immobilisation on streptavidin
notes: also called solGPIHBP1 with C-terminal FHA tag; C-terminally biotinylated GPIHBP1
B3: Human ANGPTL4(26-406)-FLAG-6HIS-Avi (ligand)
chain: GPVQSKSPRFASWDEMNVLAHGLLQLGQGLREHAERTRSQLSALERRLSACGSACQGTEGSTDLPLAPESRVDPEVLHSLQTQLKAQNSRIQQLFHKVAQQQRHLEKQHLRIQHLQSQFGLLDHKHLDHEVAKPARRKRLPEMAQPVDPAHNVSRLHRLPRDCQELFQVGERQSGLFEIQPQGSPPFLVNCKMTSDGGWTVIQRRHDGSVDFNRPWEAYKAGFGDPHGEFWLGLEKVHSITGDRNSRLAVQLRDWDGNAELLQFSVHLGGEDTAYSLQLTAPVAGQLGATTVPPSGLSVPFSTWDQDHDLRRDKNCAKSLSGGWWFGTCSHSNLNGQYFRSIPQQRQKLKKGIFWKTWRGRYYPLQATTMLIQPMAAEAASDYKDDDDKHHHHHHGGGLNDIFEAQKIEWHE

Legend:
[1] = target: Co-expressed human LPL/soluble GPIHBP1 complex (human) (UniProt P06858); test: cell-based or functional assay
[2] = target: Recombinant human LPL (mature human lipoprotein lipase, amino acids 28-475) (human) (UniProt P06858); test: cell-based or functional assay
[3] = target: B3; test: MSD ELISA: 10 nM biotinylated fusion incubated with ANGPTL4 and captured on streptavidin; bound ANGPTL4 detected with an ANGPTL4 Ab
Experimental: LPL-GPIHBP1 complex or LPL-GPIHBP1 fusion (10 nM, site-specifically biotinylated at the C-terminal end of GPIHBP1) were incubated with increasing concentrations of ANGPTL4 (a 12 point 2-fold serial dilution with highest concentration of 100 nM). The reaction mix was then applied onto a streptavidin coated MSD. The presence of LPL and ANGPTL4 was detected using an LPL or ANGPTL4 specific Abs, which were subsequently quantified using sulpho-tagged secondary Ab. To generate a signal, lx MSD read buffer T was added and the plate was developed using a Sector Imager 6000 (Meso Scale Discovery).
First, the co-expressed LPL/GPIHBP1 complex or the LPL-GPIHBP1 fusion polypeptide was immobilized on a streptavidin surface through C-terminally biotinylated GPIHBP1. The proteins were then incubated with ANGPTL4 and changes in bound ANGPTL4 and LPL were monitored with respective high affinity antibodies. A schematic representation of the assay is depicted on top of FIG. 3, panel A. When the complex was incubated with ANGPTL4, displacement of LPL from the co-expressed LPL/GPIHBP1 complex as function of ANGPTL4 concentration was observed. On the other hand, ANGPTL4 was unable to displace LPL from the covalently linked LPL-GPIHBP1 fusion polypeptide (FIG. 3, panel A, left side). Correspondingly, when bound ANGPTL4 was probed, ANGPTL4 was not captured by the co-expressed LPL/GPIHBP1 complex. […]

hANGPTL4-myc = target: T1, hANGPTL4-myc; test: TR-FRET binding assay (anti-HA-Tb / anti-myc-D2). Target taken from paragraph 181 (fusion polypeptide); the methods instead describe a 6HIS-hLPL-HA-Flag/hGPIHBP1-Avi complex at 10 nM. [cont.) C) left graph]
[4] = target: T2, Co-expressed human LPL/soluble GPIHBP1 …; test: TR-FRET dissociation of the LPL/GPIHBP1 complex: free hGPIHBP1-FHA binds the LPL of the complex and competes with the labelled GPIHBP1. FRET ratio falls from about 20000 to about 1000 between log -1 and log 3 (nM). [cont.) D]
[5] = target: T3, Recombinant human LPL (mature human …); test: cell-based or functional assay
[6] = target: T2, Co-expressed human LPL/soluble GPIHBP1 …; test: cell-based or functional assay
[7] = target: B1; test: cell-based or functional assay
[8] = target: T2, Co-expressed human LPL/soluble GPIHBP1 …; test: TR-FRET dissociation of the LPL/GPIHBP1 complex (10 nM 6HIS-hLPL-HA-Flag / biotinylated hGPIHBP1-Avi, anti-HA-Tb / streptavidin-D2). ANGPTL4 binds LPL and displaces GPIHBP1. [cont.) C) right graph]
Experimental: The assay for TR-FRET based detection of ANGPTL4 binding to the LPL/GPIHBP1 complex was carried out in 384-well plates (ProxiPlate™ 384-well white, Perkin Elmer, USA) in a final volume of 20 μl. The composition of the assay buffer was 20 mM HEPES pH=7.4, 100 mM NaCl, 10% HI-FBS, 5 mM CaCl₂). The assay procedure was as follows: First 4 μL/well of 5x 6HIS-hLPL-HA-Flag/biotinylated hGPIHBP1-Avi complex (50 nM stock in assay buffer, 10 nM complex final concentration) was added to 8 μL/well buffer. Then 4 μL/well 5x non-biotinylated ANGPTL4(26-406)-Flag-6HIS-Avi (final concentrations of 1 to 1000 nM) was added and incubation was carried out at room temperature for 1 hour. After incubation 4 μL 5× anti-HA-Tb/[…] (Cisbio, diluted in assay buffer to 1.25 nM anti-HA-Tb/50 nM streptavidin-D2 stock concentration) (0.3125 nM anti-HA-Tb/10 nM streptavidin-D2 final concentration) was added and the mixture was incubated at room temperature for 3 hours. Finally the plate was read on an Envision plate reader Ex=320 Em=665 Em=615.

[9] = target: T2, Co-expressed human LPL/soluble GPIHBP1 …; test: TR-FRET dissociation of the LPL/GPIHBP1 complex: ANGPTL4 binds the LPL of the complex and displaces the labelled GPIHBP1. FRET ratio falls from about 20000 to about 1000 between log -1 and log 3 (nM). [cont.) D]

IC50 of ANGPTL3 inactivation of LPL enzymatic activity [1]: 300 nM
fold resistance to ANGPTL3 inactivation against LPL alone [1]: > 37 fold
IC50 of ANGPTL3 inactivation of LPL enzymatic activity [2]: 7 nM and 8 nM
Molecule: Human ANGPTL3(17-460)-FLAG-HIS6-Avi (from UniProt Q9Y5C1 17-460) (ligand)

Molecule: B1
binding result [3]: binds
binding result (hANGPTL4-myc): binds

Molecule: B2
IC50 [4]: 15 nM

Molecule: B3
IC50 of ANGPTL4 inactivation of LPL enzymatic activity [5]: 3 nM
IC50 of ANGPTL4 inactivation of LPL enzymatic activity [6]: 19 nM
fold resistance to ANGPTL4 inactivation against LPL alone [6]: > 6 fold
IC50 of ANGPTL4 inactivation of LPL enzymatic activity [7]: 107 nM
fold increase of the IC50 of ANGPTL4 inactivation against LPL alone [7]: > 35 fold
fold increase of the IC50 of ANGPTL4 inactivation against the co-expressed LPL/GPIHBP1 complex [7]: > 5 fold
IC50 (read off the curve) [8]: ~20 nM
IC50 [9]: 18 nM
